# B1: PKCι (enzyme, UniProt P41743 2-596, looked up, species assumed)
# Protein kinase C iota type: PTQRDSSTMSHTVAGGGSGDHSHQVRVKAYYRGDIMITHFEPSISFEGLCNEVRDMCSFDNEQLFTMKWIDEEGDPCTVSSQLELEEAFRLYELNKDSELLIHVFPCVPERPGMPCPGEDKSIYRRGARRWRKLYCANGHTFQAKRFNRRAHCAICTDRIWGLGRQGYKCINCKLLVHKKCHKLVTIECGRHSLPQEPVMPMDQSSMHSDHAQTVIPYNPSSHESLDQVGEEKEAMNTRESGKASSSLGLQDFDLLRVIGRGSYAKVLLVRLKKTDRIYAMKVVKKELVNDDEDIDWVQTEKHVFEQASNHPFLVGLHSCFQTESRLFFVIEYVNGGDLMFHMQRQRKLPEEHARFYSAEISLALNYLHERGIIYRDLKLDNVLLDSEGHIKLTDYGMCKEGLRPGDTTSTFCGTPNYIAPEILRGEDYGFSVDWWALGVLMFEMMAGRSPFDIVGSSDNPDQNTEDYLFQVILEKQIRIPRSLSVKAASVLKSFLNKDPKERLGCHPQTGFADIQGHPFFRNVDWDMMEQKQVVPPFKPNISGEFGLDNFDSQFTNEPVQLTPDDDDIVRKIDQSEFEGFEYINPLLMSAEECV
# B2: PKCζ (enzyme, UniProt Q05513 1-592, looked up, species assumed)
# Protein kinase C zeta type: MPSRTGPKMEGSGGRVRLKAHYGGDIFITSVDAATTFEELCEEVRDMCRLHQQHPLTLKWVDSEGDPCTVSSQMELEEAFRLARQCRDEGLIIHVFPSTPEQPGLPCPGEDKSIYRRGARRWRKLYRANGHLFQAKRFNRRAYCGQCSERIWGLARQGYRCINCKLLVHKRCHGLVPLTCRKHMDSVMPSQEPPVDDKNEDADLPSEETDGIAYISSSRKHDSIKDDSEDLKPVIDGMDGIKISQGLGLQDFDLIRVIGRGSYAKVLLVRLKKNDQIYAMKVVKKELVHDDEDIDWVQTEKHVFEQASSNPFLVGLHSCFQTTSRLFLVIEYVNGGDLMFHMQRQRKLPEEHARFYAAEICIALNFLHERGIIYRDLKLDNVLLDADGHIKLTDYGMCKEGLGPGDTTSTFCGTPNYIAPEILRGEEYGFSVDWWALGVLMFEMMAGRSPFDIITDNPDMNTEDYLFQVILEKPIRIPRFLSVKASHVLKGFLNKDPKERLGCRPQTGFSDIKSHAFFRSIDWDLLEKKQALPPFQPQITDDYGLDNFDTQFTSEPVQLTPDDEDAIKRIDQSEFEGFEYINPLLLSTEESV
# B3: PKCν (enzyme, UniProt O94806 1-890, looked up, species assumed)
# Serine/threonine-protein kinase D3: MSANNSPPSAQKSVLPTAIPAVLPAASPCSSPKTGLSARLSNGSFSAPSLTNSRGSVHTVSFLLQIGLTRESVTIEAQELSLSAVKDLVCSIVYQKFPECGFFGMYDKILLFRHDMNSENILQLITSADEIHEGDLVEVVLSALATVEDFQIRPHTLYVHSYKAPTFCDYCGEMLWGLVRQGLKCEGCGLNYHKRCAFKIPNNCSGVRKRRLSNVSLPGPGLSVPRPLQPEYVALPSEESHVHQEPSKRIPSWSGRPIWMEKMVMCRVKVPHTFAVHSYTRPTICQYCKRLLKGLFRQGMQCKDCKFNCHKRCASKVPRDCLGEVTFNGEPSSLGTDTDIPMDIDNNDINSDSSRGLDDTEEPSPPEDKMFFLDPSDLDVERDEEAVKTISPSTSNNIPLMRVVQSIKHTKRKSSTMVKEGWMVHYTSRDNLRKRHYWRLDSKCLTLFQNESGSKYYKEIPLSEILRISSPRDFTNISQGSNPHCFEIITDTMVYFVGENNGDSSHNPVLAATGVGLDVAQSWEKAIRQALMPVTPQASVCTSPGQGKDHKDLSTSISVSNCQIQENVDISTVYQIFADEVLGSGQFGIVYGGKHRKTGRDVAIKVIDKMRFPTKQESQLRNEVAILQNLHHPGIVNLECMFETPERVFVVMEKLHGDMLEMILSSEKSRLPERITKFMVTQILVALRNLHFKNIVHCDLKPENVLLASAEPFPQVKLCDFGFARIIGEKSFRRSVVGTPAYLAPEVLRSKGYNRSLDMWSVGVIIYVSLSGTFPFNEDEDINDQIQNAAFMYPPNPWREISGEAIDLINNLLQVKMRKRYSVDKSLSHPWLQDYQTWLDLREFETRIGERYITHESDDARWEIHAYTHNLVYPKHFIMAPNPDDMEEDP
# B4: PKCµ (enzyme, UniProt Q15139 1-912, looked up, species assumed)
# Serine/threonine-protein kinase D1: MSAPPVLRPPSPLLPVAAAAAAAAAALVPGSGPGPAPFLAPVAAPVGGISFHLQIGLSREPVLLLQDSSGDYSLAHVREMACSIVDQKFPECGFYGMYDKILLFRHDPTSENILQLVKAASDIQEGDLIEVVLSASATFEDFQIRPHALFVHSYRAPAFCDHCGEMLWGLVRQGLKCEGCGLNYHKRCAFKIPNNCSGVRRRRLSNVSLTGVSTIRTSSAELSTSAPDEPLLQKSPSESFIGREKRSNSQSYIGRPIHLDKILMSKVKVPHTFVIHSYTRPTVCQYCKKLLKGLFRQGLQCKDCRFNCHKRCAPKVPNNCLGEVTINGDLLSPGAESDVVMEEGSDDNDSERNSGLMDDMEEAMVQDAEMAMAECQNDSGEMQDPDPDHEDANRTISPSTSNNIPLMRVVQSVKHTKRKSSTVMKEGWMVHYTSKDTLRKRHYWRLDSKCITLFQNDTGSRYYKEIPLSEILSLEPVKTSALIPNGANPHCFEITTANVVYYVGENVVNPSSPSPNNSVLTSGVGADVARMWEIAIQHALMPVIPKGSSVGTGTNLHRDISVSISVSNCQIQENVDISTVYQIFPDEVLGSGQFGIVYGGKHRKTGRDVAIKIIDKLRFPTKQESQLRNEVAILQNLHHPGVVNLECMFETPERVFVVMEKLHGDMLEMILSSEKGRLPEHITKFLITQILVALRHLHFKNIVHCDLKPENVLLASADPFPQVKLCDFGFARIIGEKSFRRSVVGTPAYLAPEVLRNKGYNRSLDMWSVGVIIYVSLSGTFPFNEDEDIHDQIQNAAFMYPPNPWKEISHEAIDLINNLLQVKMRKRYSVDKTLSHPWLQDYQTWLDLRELECKIGERYITHESDDLRWEKYAGEQGLQYPTHLINPSASHSDTPETEETEMKALGERVSIL
# Test system: PKCα-S10
row,Protein,"phosphorylation activity (1 µM peptide, 2 ng kinase)"
1,B1,"very little activity is detected with PKCε, PKCζ, PKCη and PKCι"
2,B2,"very little activity is detected with PKCε, PKCζ, PKCη and PKCι"
3,B3,"no activity is observed with PKCδ, PKCµ, and PKCν"
4,B4,"no activity is observed with PKCδ, PKCµ, and PKCν"

# Source: patent US8586570
